assay: soluble on expression in E. coli; label from the status in PepcDB or PDB records

Soluble on expression in E. coli, not soluble:
MGHHHHHHSHDDSSEWGNSFFWNQLLHVPLRQHQVSCCDWLLKIICGVVTIRTVYASHKQAKACLVSRVSCERTGTRFHTRGVNDDGHVSNFVETEQMIYMDDGVSSFVQIRGSVPLFWEQPGLQVGSHHLRLHRGLEANAPAFDRHMVLLKEQYGQQVVVNLLGSRGGEEVLNRAFKKLLWASCHAGDTPMINFDFHQFAKGG, MGHHHHHHSHGSCEVLRLLDLGASPSYRRWIWQHLELIDGRPLKTHLSEYSPMERFKEFQIKSYPLQDFSSLKLPHLKKAWGLQGTSFSRKIRTSGDTLPKMLGPKIQSRPAQSIKCAMINIKPGELPKEAAVGAYVKVHTVEQGEILGLHQAFLPEGECDTRPLILMSLGNELIRIRKEIFYELIDNDDEMIKKLLKLNIAFPSDEDMCQKFLQQNSWNIFRKDLLQLLVEPCQSQLFTPNRPKKREIYNPKSVVLDLCSINKTTKPRYPIFMAPQKYLPPLRIVQAIKAPRYKIRELLA, MGHHHHHHSHKNMKPIGCNAVQLTGGEPTLRDDLIDIIRMIKEEGYDHIQLNTNGIRLAEDPDFALRVRVAGVNTVYLSFDGVDEKTNPKNHHEIPKILENCRRAQLGLVLVPTVIKGVNDHQLGDIIRFAAENIDIVRGVNFQPVSLVGSMPRKEREQFRITIPDCIKAIEEQTNGEIGREDFYPVPSVVPISRFVEALTGQPQYELTTHFACGMATYIFKDNGRLIPITRFVDVEGLFEF, MGHHHHHHSHMAEISDLDRQIEQLRRCELIKESEVKALCAKAREILVEESNVQRVDSPVTVCGDIHGQFYDLKELFRVGGDVPETNYLFMGDFVDRGFYSVETFLLLLALKVRYPDRITLIRGNHESRQITQVYGFYDECLRKYGSVTVWRYCTEIFDYLSLSAIIDGKIFCVHGGLSPSIQTLDQIRTIDRKQEVPHDGPMCDLLWSDPEDTTGWGVSPRGAGYLFGSDVVAQFNAANDIDMICRAHQLVMEGYKWHFNETVLTVWSAPNYCYRCGNVAAILELDEHLQKDFIIFEAAPQETRGIPSKKPVADYFL, MGHHHHHHSHMANSAGSMANSAGSDKGEQYTLAVGHSLPPALESKLNEIDEISVKTFAKPEEAVDEGKADAYLNVPKEFDSYVNSMTPFKVDVYGNSIDQGSSNAMQLVQSALDQYKNEIVQQRLTNKHIDQSVIQPFTIQQKEADEEKGTSAI, MGHHHHHHSHMANSAGSMANSAGSMATLSDFFPEADPVLEKNYRRCVDLAINMSWSVPGQFKLVETPINSFLLVGDVLPNDMIESKPVNSTNLVNIPFPLSTLGVSTSKKSVEVTSYKSETEKFQEAASISEHSIRGSIVYEGLTWITAMGYNVTDFLVNMLEQMKCPENWSGLHPVDPLACVWLLYFGPKSRCSEIACVSELFIGKKGPILLPPHMYRGDTSVNSFAHHLCQYVKHLYADYEPEILSCPLDITRVKGCLSDLRQVAESCVFLSQRCLLCHLYKQNAAVSKNILTASDCIILGGSGKSLLGTYMKSYKDPATHDSILLPTYNLEAIVNYILEHYGHETAGQEINWE, MGHHHHHHSHMASVSSATFSGHGARSLLQFLRLVGQLKRVPRTGWVYRNVQRPESVSDHMYRMAVMAMVIKDDRLNKDRKL, MGHHHHHHSHMCNTPTYCDLGKAAKDVFNKGYGFGMVKIDLKTKSCSGVMEFSTSGHAYTDTGKASGNLETKYKVCNYGLTFTQKWNTDNTLGTEISWENKLAEGLKLTLDTIFVPNTGKKSGKLKASYKRDCFSVGSNVDIDFSGPTIYGWAVLAFEGWLAGYQMSFDTAKSKLSQNNFALGYKAADFQLHTHVNDGTEFGGSIYQKVNEKIETSINLAWTAGSNNTRFGIAAKYMLDCRTSLSAKVNNASLIGLGYTQTLRPGVKLTLSALIDGKNFSAGGHKVGLGFELEA, MGHHHHHHSHMDWTLAMAQESGVWSEAGQLALHSYLEGLHTLASCAPAPSLSAPRLKSCIQCVESQLLVVIMSVCMLVCQLRNVCVCVHAHACMYLFPVPSGSGCHFRLSALSPATSVPQPEREMRCSWTPHCIWAAGPELV, MGHHHHHHSHMEAPGPAQAAAAESNSREVTEDAADWAPALCPSPEARSPEAPAYRLQDCDALVTMGTGTFGRVHLVKEKTAKHFFALKVMSIPDVIRRKQEQHVHNEKSVLKEVSHPFLIRLFWTWHEERFLYMLMEYVPGGELFSYLRNRGHFSSTTGLFYSAEIICAIEYLHSKEIVYRDLKPENILLDRDGHIKLTDFGFAKKLVDRTWTLCGTPEYLAPEVIQSKGHGRAVDWWALGILIFEMLSGFPPFFDDNPFGIYQKILAGKLYFPRHLDFHVKTGRMM, MGHHHHHHSHMENKGVVALYHYFYGPALIPYFSHTHNPQRSPDFSERQRRREITLTVDGFVPPSSTEDLGDGFYSYAWTNQQVINPGEYLVCHLEGRDINVINGGFTPRDTAPLYAVQAFQDEETNGSLSFIILCKPKEPYRFI, MGHHHHHHSHMIINWNQVSVLWKCLLKQSASYQDRRQSWRRASMKETNRRKSLHPIHQGITELSRSISVDLAESKRLGCLLLSSFQFSIQKLEPFLRDTKGFSLESFRAKASSLSEELKHFADGLETDGTLQKCFEDSNGKASDFSLEASVAEMKEYITKFSLERQTWDQLLLHYQQEAKEILSRGSTEAKITEVKVEPMTYLGSSQNEVLNTKPDYQKNYRTRAKSLTVWSW

Soluble on expression in E. coli, soluble:
MGGSHHHHHHRSESTVTEELKEGIDAVYPSLVGTADSKAEGIKNYFKLSFTLPEEQKSRTVGSEAPLKDVAQALSSRARYELFTEKETANPAFNGEVIKRYKELMEHGEGIADILRSRLAKFLNTKDVGKRFAQGTEANRWVGGKLLNIVEQDGDTFKYNEQLLQTAVLAGLQWRLTATSNTAIKDAKDVAAITGIDQALLPEGLVEQFDTGMTLTEAVSSLAQKIESYWGLSRNPNAPLGYTKGIPTAMAAEILAAFVESTDVVENIVDMSEIDPDNKKTIGLYTITELDSFDPINSFPTAIEEAVLVNPTEKMFFGDDIPPVANTQLRNPAVRNTPEQKAALKAEQATEFYVHTPMVQFYETLGKDRILELMGAGTLNKELLNDNHAKSLEGKNRSVEDSYNQLFSVIEQVRAQSEDISTVPIHYAYNMTRVGRMQMLGKYNPQSAKLVREAILPTKATLDLSNQNNEDFSAFQLGLAQALDIKVHTMTREVMSDELTKLLEGNLKPAIDMMVEFNTTGSLPENAVDVLNTALGDRKSFVALMALMEYSRYLVAEDKSAFVTPLYVEADGVTNGPINAMMLMTGGLFTPDWIRNIAKGGLFIGSPNKTMNEHRSTADNNDLYQASTNALMESLGKLRSNYASNMPIQSQIDSLLSLMDLFLPDINLGENGALELKRGIAKNPLTITIYGSGARGIAGKLVSSVTDAIYERMSDVLKARAKDPNISAAMAMFGKQAASEAHAEELLARFLKDMETLTSTVPVKRKGVLELQSTGTGAKGKINPKTYTIKGEQLKALQENMLHFFVEPLRNGITQTVGESLVYSTEQLQKATQIQSVVLEDMFKQRVQEKLAEKAKDPTWKKGDFLTQKELNDIQASLNNLAPMIETGSQTFYIAGSENAEVANQVLATNLDDRMRVPMSIYAPAQAGVAGIPFMTIGTGDGMMMQTLSTMKGAPKNTLKIFDGMNIGLNDITDASRKANEAVYTSWQGNPIKNVYESYAKFMKNVDFSKLSPEALEAIGKSALEYDQRENATVDDIANAASLIERNLRNIALGVDIRHKVLDKVNLSIDQMAAVGAPYQNNGKIDLSNMTPEQQADELNKLFREELEARKQKVAKA, MGHHHHHHDTDIPTTENLTFQGACRLVANCRDVRCRRLLRNVMPVAGSELPRRPLPPAAQERDAEPRPPHGELQYLGQIQHILRCGVRKDDRTGTGTLSVFGMQARYSLRDEFPLLTTKRVFWKGVLEELLWFIKGSTNAKELSSKGVKIWDANGSRDFLDSLGFSTREEGDLGPVYGFQWRHFGAEYRDMESDYSGQGVDQLQRVIDTIKTNPDDRRIIMCAWNPRDLPLMALPPCHALCQFYVVNSELSCQLYQRSGDMGLGVPFNIASYALLTYMIAHITGLKPGDFIHTLGDAHIYLNHIEPLKIQLQREPRPFPKLRILRKVEKIDDFKAEDFQIEGYNPHPTIKMEMAV, MGHHHHHHHHHSSGHIDDDDKHMLEASAKATMGQGEQDHFVLKSGHAMPAVGLGTWRAGSDTAHSVRTAITEAGYRHVDTAAEYGVEKEVGKGLKAAMEAGIDRKDLFVTSKIWCTNLAPERVRPALENTLKDLQLDYIDLYHIHWPFRLKDGAHMPPEAGEVLEFDMEGVWKEMENLVKDGLVKDIGVCNYTVTKLNRLLRSAKIPPAVCQMEMHPGWKNDKIFEACKKHGIHITAYSPLGSSEKNLAHDPVVEKVANKLNKTPGQVLIKWALQRGTSVIPKSSKDERIKENIQVFGWEIPEEDFKVLCSIKDEKRVLTGEELFVNKTHGPYRSARDVWDHEN, MGHHHHHHSHAQHNYVISLTTEQKRRKHITEEFGKQNIPFEFFDAITPDIIEETAKKFNITLDRSPKAKLSDGEIGCALSHIVLWDLALENNLNYINIFEDDIHLGENAKELLEIDYISDDIHVLKLEANGKMFFKQPKSVKCDRNVYPMTVKQSGCAGYTVTAKGAKYLLELVKNKPLDVAVDSLV, MGHHHHHHSHDSLAEFKVPLILFSGGEPLLREDIFEIAGYAKKKGIKSVLSTNGTLIDRDMAENLKVFEYVGVSLDGVASTNDRFRGVEGAYERAFKGLLMASEVVLSGIRFTVSKYNYKDVFSLIELAREHEIPRFCLYHLVPSGRAEFKDDITNEQRRALLDNLLREAEKEGMEIMTVDNPADGIYTYLKLKEADSEKAEMALEFLKFRGGDSSGIRLANIDHQGNVHPNQFW, MGHHHHHHSHIVERVIEATLPTKFYGTFRAVGYKTPLGEIVALVKGRVDEGDVLVRIHSECLTGDVFHSLRCDCGDQLENALKMIDREGKGVAIYMRGHEGRGIGLINKLMAYKLQEEGKDTVDANIELGFPPDMRSYGIAAQILMDLKVKSIRLLTNNPLKIEELKKYGFKIVREPIE, MGHHHHHHSHMAERETETSNSESKQDKAASSKEKNGCNANSFEGSSTTKSEESITVSDKENETCLADQETGSKNIVSCDSNIGADKVEKKKQIQHVCQEMELKMCQSSENIILSDQIKDHNSSEARFSSKNIKDLRLASDNVSIDQFLRKRHEPESVSSDVSEQGSIHLEPLTPSEVLEYEATEILQKGSGDPSAKTDEVVSDQTDDIPGGNNPSTTEATVDLEDEKERS, MGHHHHHHSHMAQLENQILETLKPLIDANTGKSYVAAKNVKNLKCGDAEISLDVVLAYPAKSQFDAVRQQFEAALAPLAEGRAIKIAVSAQIVSHSAQRGVPLLPGVKNVIAVASGKGGVGKSTTAANLALALADEGARVGLLDADIYGPSQPLMMGLQGQRPETADGKLTPLSNHGIQTMSIGYLVDADQAMVWRGPMVSQALQQLLNDTRWDDLDYLVIDMPPGTGDVQLTLSQKVPVTGALIVTTPQDIALLDARKGVTMFQKVGVPILGLVENMAIHVCSNCGHAEHIFGEGGAVKMAQDFGVELLGSLPLDLAIRQAVDEGRPSVAADPSGKPAELYRAIARRVAVKVGEKAQDFSGKFPKIVIQNN, MGHHHHHHSHMEDSHKSTTSETAPQPGSAVQGAHISHIAQQVSSLSESEESQDSSDSIGSSQKAHGILARRPSYRKILKDLSSEDTRGRKGDGENSGVSAAVTSMSVPTPIYQTSSGQYIAIAPNGALQLASPGTDGVQGLQTLTMTNSGSTQQGTTILQYAQTSDGQQILVPSNQVVVQTASGDMQTYQIRTTPSATSLPQTVVMTSPVTLTSQTTKTDDPQLKREIRLMKNREAARECRRKKKEYVKCLENRVAVLENQNKTLIEELKTLKDLYSNKSV

— the DeepSol protein solubility set
